Patent US9029508 (dated 2015)

The binders below were run against DLL4 (human, UniProt Q9NR61) (assay: ELISA).
Chain of DLL4 (Q9NR61 27-524): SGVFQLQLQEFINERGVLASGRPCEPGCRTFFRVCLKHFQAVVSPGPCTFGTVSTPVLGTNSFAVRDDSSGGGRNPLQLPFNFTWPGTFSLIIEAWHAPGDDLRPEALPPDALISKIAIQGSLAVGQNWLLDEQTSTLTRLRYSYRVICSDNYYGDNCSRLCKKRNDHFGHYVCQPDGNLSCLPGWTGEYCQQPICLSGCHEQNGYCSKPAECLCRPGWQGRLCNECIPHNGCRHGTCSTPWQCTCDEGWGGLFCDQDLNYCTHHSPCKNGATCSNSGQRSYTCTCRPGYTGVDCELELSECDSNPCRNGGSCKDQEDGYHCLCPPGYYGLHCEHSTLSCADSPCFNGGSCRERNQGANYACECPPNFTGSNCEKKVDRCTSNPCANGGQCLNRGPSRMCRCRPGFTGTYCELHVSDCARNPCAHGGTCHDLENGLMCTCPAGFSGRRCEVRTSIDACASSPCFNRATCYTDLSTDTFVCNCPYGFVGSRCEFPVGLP

Binder | EC50
DVD465 DLL4 arm (antibody, DVD-Ig outer) chain 1: EVQLVESGGGLVQPGGSLRLSCAASGFTFTDNWISWVRQAPGKGLEWVGYISPNSGFTYYADSVKGRFTISADTSKNTAYLQMNSLRAEDTAVYYCARDNFGGYFDYWGQGTLVTVSS chain 2: DIQMTQSPSSLSASVGDRVTITCRASQDVSTAVAWYQQKPGKAPKLLIYSASFLYSGVPSRFSGSGSGTDFTLTISSLQPEDFATTYYCQQSYTGTVTFGQGTKVEIKR | 0.57 nM
DVD469 DLL4 arm (antibody, DVD-Ig outer) chain 1: EVQLVESGGGLVQPGGSLRLSCAASGFTFTDNWISWVRQAPGKGLEWVGYISPNSGFTYYADSVKGRFTISADTSKNTAYLQMNSLRAEDTAVYYCARDNFGGYFDYWGQGTLVTVSS chain 2: DIQMTQSPSSLSASVGDRVTITCRASQDVSTAVAWYQQKPGKAPKLLIYSASFLYSGVPSRFSGSGSGTDFTLTISSLQPEDFATTYYCQQSYTGTVTFGQGTKVEIKR | 2.78 nM
DVD480 DLL4 arm (antibody, DVD-Ig inner) chain 1: EVQLVESGGGLVQPGGSLRLSCAASGFTFTDNWISWVRQAPGKGLEWVGYISPNSGFTYYADSVKGRFTISADTSKNTAYLQMNSLRAEDTAVYYCARDNFGGYFDYWGQGTLVTVSS chain 2: DIQMTQSPSSLSASVGDRVTITCRASQDVSTAVAWYQQKPGKAPKLLIYSASFLYSGVPSRFSGSGSGTDFTLTISSLQPEDFATTYYCQQSYTGTVTFGQGTKVEIKR | 0.6 nM
DVD471 DLL4 arm (antibody, DVD-Ig outer) chain 1: EVQLVESGGGLVQPGGSLRLSCAASGFTFTDNWISWVRQAPGKGLEWVGYISPNSGFTYYADSVKGRFTISADTSKNTAYLQMNSLRAEDTAVYYCARDNFGGYFDYWGQGTLVTVSS chain 2: DIQMTQSPSSLSASVGDRVTITCRASQDVSTAVAWYQQKPGKAPKLLIYSASFLYSGVPSRFSGSGSGTDFTLTISSLQPEDFATTYYCQQSYTGTVTFGQGTKVEIKR | 0.89 nM
DVD483 DLL4 arm (antibody, DVD-Ig outer) chain 1: EVQLVESGGGLVQPGGSLRLSCAASGFTFTDNWISWVRQAPGKGLEWVGYISPNSGFTYYADSVKGRFTISADTSKNTAYLQMNSLRAEDTAVYYCARDNFGGYFDYWGQGTLVTVSS chain 2: DIQMTQSPSSLSASVGDRVTITCRASQDVSTAVAWYQQKPGKAPKLLIYSASFLYSGVPSRFSGSGSGTDFTLTISSLQPEDFATTYYCQQSYTGTVTFGQGTKVEIKR | 0.63 nM
DVD466 DLL4 arm (antibody, DVD-Ig inner) chain 1: EVQLVESGGGLVQPGGSLRLSCAASGFTFTDNWISWVRQAPGKGLEWVGYISPNSGFTYYADSVKGRFTISADTSKNTAYLQMNSLRAEDTAVYYCARDNFGGYFDYWGQGTLVTVSS chain 2: DIQMTQSPSSLSASVGDRVTITCRASQDVSTAVAWYQQKPGKAPKLLIYSASFLYSGVPSRFSGSGSGTDFTLTISSLQPEDFATTYYCQQSYTGTVTFGQGTKVEIKR | 19.8 nM
DVD462 DLL4 arm (antibody, V domains shown, DVD-Ig inner) VH: QVQLVQSGAEVKKPGASVKISCKASGYSFTAYYIHWVKQAPGQGLEWIGYISSYNGATNYNQKFKGRVTFTTDTSTSTAYMELRSLRSDDTAVYYCARDYDYDVGMDYWGQGTLVTVSS VL: DIVMTQSPDSLAVSLGERATISCRASESVDNYGISFMKWFQQKPGQPPKLLIYAASNQGSGVPDRFSGSGSGTDFTLTISSLQAEDVAVYYCQQSKEVPWTFGGGTKVEIKR | 7.99 nM
DVD442 DLL4 arm (antibody, V domains shown, DVD-Ig inner) VH: QVQLVQSGAEVKKPGASVKISCKASGYSFTAYYIHWVKQAPGQGLEWIGYISSYNGATNYNQKFKGRVTFTTDTSTSTAYMELRSLRSDDTAVYYCARDYDYDVGMDYWGQGTLVTVSS VL: DIVMTQSPDSLAVSLGERATISCRASESVDNYGISFMKWFQQKPGQPPKLLIYAASNQGSGVPDRFSGSGSGTDFTLTISSLQAEDVAVYYCQQSKEVPWTFGGGTKVEIKR | 10.6 nM
DVD441 DLL4 arm (antibody, V domains shown, DVD-Ig outer) VH: QVQLVQSGAEVKKPGASVKISCKASGYSFTAYYIHWVKQAPGQGLEWIGYISSYNGATNYNQKFKGRVTFTTDTSTSTAYMELRSLRSDDTAVYYCARDYDYDVGMDYWGQGTLVTVSS VL: DIVMTQSPDSLAVSLGERATISCRASESVDNYGISFMKWFQQKPGQPPKLLIYAASNQGSGVPDRFSGSGSGTDFTLTISSLQAEDVAVYYCQQSKEVPWTFGGGTKVEIKR | 0.04 nM
DVD454 DLL4 arm (antibody, V domains shown, DVD-Ig inner) VH: QVQLVQSGAEVKKPGASVKISCKASGYSFTAYYIHWVKQAPGQGLEWIGYISSYNGATNYNQKFKGRVTFTTDTSTSTAYMELRSLRSDDTAVYYCARDYDYDVGMDYWGQGTLVTVSS VL: DIVMTQSPDSLAVSLGERATISCRASESVDNYGISFMKWFQQKPGQPPKLLIYAASNQGSGVPDRFSGSGSGTDFTLTISSLQAEDVAVYYCQQSKEVPWTFGGGTKVEIKR | 1.01 nM
DVD493 DLL4 arm (antibody, V domains shown, DVD-Ig outer) VH: EVQLQQSGPELVKPGASVKMSCKASGYTFTSYVINWVKQKPGQGLEWIGLINPYNDGTKYNEKFKVKATLTSDKSSSTAYMELSSLTSEDSAVYYCASYYYGSRYYFDYWGQGTTLTVSS VL: DIQMTQSSSYLSVSLGGRVTITCKASDHINNWLAWYQQKPGNAPRLLISGATSLETGVPSRFSGSGSGKDYTLSITSLQTEDVATYYCQQYWSIPLTFGAGTKLELKR | 0.06 nM
DVD504 DLL4 arm (antibody, V domains shown, DVD-Ig inner) VH: EVQLQQSGPELVKPGASVKMSCKASGYTFTSYVINWVKQKPGQGLEWIGLINPYNDGTKYNEKFKVKATLTSDKSSSTAYMELSSLTSEDSAVYYCASYYYGSRYYFDYWGQGTTLTVSS VL: DIQMTQSSSYLSVSLGGRVTITCKASDHINNWLAWYQQKPGNAPRLLISGATSLETGVPSRFSGSGSGKDYTLSITSLQTEDVATYYCQQYWSIPLTFGAGTKLELKR | 0.53 nM
DVD491 DLL4 arm (antibody, V domains shown, DVD-Ig outer) VH: EVQLQQSGPELVKPGASVKMSCKASGYTFTSYVINWVKQKPGQGLEWIGLINPYNDGTKYNEKFKVKATLTSDKSSSTAYMELSSLTSEDSAVYYCASYYYGSRYYFDYWGQGTTLTVSS VL: DIQMTQSSSYLSVSLGGRVTITCKASDHINNWLAWYQQKPGNAPRLLISGATSLETGVPSRFSGSGSGKDYTLSITSLQTEDVATYYCQQYWSIPLTFGAGTKLELKR | 0.39 nM
DVD498 DLL4 arm (antibody, V domains shown, DVD-Ig inner) VH: EVQLQQSGPELVKPGASVKMSCKASGYTFTSYVINWVKQKPGQGLEWIGLINPYNDGTKYNEKFKVKATLTSDKSSSTAYMELSSLTSEDSAVYYCASYYYGSRYYFDYWGQGTTLTVSS VL: DIQMTQSSSYLSVSLGGRVTITCKASDHINNWLAWYQQKPGNAPRLLISGATSLETGVPSRFSGSGSGKDYTLSITSLQTEDVATYYCQQYWSIPLTFGAGTKLELKR | 0.45 nM

Next, values leading:

EC50 | Binder
0.09 nM | DVD523 DLL4 arm (antibody, V domains shown, DVD-Ig outer) VH: EVQLQQSGPELEKPGASVKISCKASGYSFTGYNMNWVKQSNGKSLEWIGNIDPYFGGTNYNQKFKGKATLTVDKSSSTAYMQLKSLTSEDSAVYYCARNYDYDGGCFDYWGQGTTLTVSS VL: QAVVTQESALTTSPGETVTLTCRSSTGAVTTSNYANWVQEKPDHLFTGLIGGTNNRAPGVPARFSGSLIGDKAALTITGAQTEDEAIYFCALWYSNHWVFGGGTKLTVLG
0.1 nM | DVD511 DLL4 arm (antibody, V domains shown, DVD-Ig outer) VH: EVQLQQSGPELEKPGASVKISCKASGYSFTGYNMNWVKQSNGKSLEWIGNIDPYFGGTNYNQKFKGKATLTVDKSSSTAYMQLKSLTSEDSAVYYCARNYDYDGGCFDYWGQGTTLTVSS VL: QAVVTQESALTTSPGETVTLTCRSSTGAVTTSNYANWVQEKPDHLFTGLIGGTNNRAPGVPARFSGSLIGDKAALTITGAQTEDEAIYFCALWYSNHWVFGGGTKLTVLG
1 nM | DVD525 DLL4 arm (antibody, V domains shown, DVD-Ig outer) VH: EVQLQQSGPELEKPGASVKISCKASGYSFTGYNMNWVKQSNGKSLEWIGNIDPYFGGTNYNQKFKGKATLTVDKSSSTAYMQLKSLTSEDSAVYYCARNYDYDGGCFDYWGQGTTLTVSS VL: QAVVTQESALTTSPGETVTLTCRSSTGAVTTSNYANWVQEKPDHLFTGLIGGTNNRAPGVPARFSGSLIGDKAALTITGAQTEDEAIYFCALWYSNHWVFGGGTKLTVLG
1.57 nM | DVD526 DLL4 arm (antibody, V domains shown, DVD-Ig inner) VH: EVQLQQSGPELEKPGASVKISCKASGYSFTGYNMNWVKQSNGKSLEWIGNIDPYFGGTNYNQKFKGKATLTVDKSSSTAYMQLKSLTSEDSAVYYCARNYDYDGGCFDYWGQGTTLTVSS VL: QAVVTQESALTTSPGETVTLTCRSSTGAVTTSNYANWVQEKPDHLFTGLIGGTNNRAPGVPARFSGSLIGDKAALTITGAQTEDEAIYFCALWYSNHWVFGGGTKLTVLG
0.25 nM | DVD533 DLL4 arm (antibody, V domains shown, DVD-Ig outer) VH: EVQLQQSGPELEKPGASVKISCKASGYSFTGYNMNWVKQSNGKSLEWIGNIDPYFGGTNYNQKFKGKATLTVDKSSSTAYMQLKSLTSEDSAVYYCARNYDYDGGCFDYWGQGTTLTVSS VL: QAVVTQESALTTSPGETVTLTCRSSTGAVTTSNYANWVQEKPDHLFTGLIGGTNNRAPGVPARFSGSLIGDKAALTITGAQTEDEAIYFCALWYSNHWVFGGGTKLTVLG
1.43 nM | DVD532 DLL4 arm (antibody, V domains shown, DVD-Ig inner) VH: EVQLQQSGPELEKPGASVKISCKASGYSFTGYNMNWVKQSNGKSLEWIGNIDPYFGGTNYNQKFKGKATLTVDKSSSTAYMQLKSLTSEDSAVYYCARNYDYDGGCFDYWGQGTTLTVSS VL: QAVVTQESALTTSPGETVTLTCRSSTGAVTTSNYANWVQEKPDHLFTGLIGGTNNRAPGVPARFSGSLIGDKAALTITGAQTEDEAIYFCALWYSNHWVFGGGTKLTVLG
0.09 nM | DVD505 DLL4 arm (antibody, V domains shown, DVD-Ig outer) VH: EVQLQQSGPELVKPGASVKMSCKASGYTFTSYVINWVKQKPGQGLEWIGLINPYNDGTKYNEKFKVKATLTSDKSSSTAYMELSSLTSEDSAVYYCASYYYGSRYYFDYWGQGTTLTVSS VL: DIQMTQSSSYLSVSLGGRVTITCKASDHINNWLAWYQQKPGNAPRLLISGATSLETGVPSRFSGSGSGKDYTLSITSLQTEDVATYYCQQYWSIPLTFGAGTKLELKR
0.42 nM | DVD510 DLL4 arm (antibody, V domains shown, DVD-Ig inner) VH: EVQLQQSGPELVKPGASVKMSCKASGYTFTSYVINWVKQKPGQGLEWIGLINPYNDGTKYNEKFKVKATLTSDKSSSTAYMELSSLTSEDSAVYYCASYYYGSRYYFDYWGQGTTLTVSS VL: DIQMTQSSSYLSVSLGGRVTITCKASDHINNWLAWYQQKPGNAPRLLISGATSLETGVPSRFSGSGSGKDYTLSITSLQTEDVATYYCQQYWSIPLTFGAGTKLELKR
